Source: patent US20160222132A1 (IGM BIOSCIENES, published 2016)
Numbering of substitutions follows the chain as printed. Names may count otherwise.

How the values were obtained:
[1] = molecular target: the molecule itself; assay: self-association (Fc homodimer); co-transfection of wild-type Okt:Fc in 293F cells, Capture Select IgM immunoprecipitation, non-reducing SDS-PAGE (FIG. 8, lane 1)
[2] = molecular target: T1, Fc2b (human µ chain CH2 to CH4 with C291S, L352S, T354K, H395V and I397K mutations and tail piece deletion) (human, UniProt P01871 112-433); assay: co-transfection in 293F cells, Capture Select IgM immunoprecipitation, non-reducing SDS-PAGE (FIG. 6, lane 2)
T1 construct: also called Pc2b
T1 chain: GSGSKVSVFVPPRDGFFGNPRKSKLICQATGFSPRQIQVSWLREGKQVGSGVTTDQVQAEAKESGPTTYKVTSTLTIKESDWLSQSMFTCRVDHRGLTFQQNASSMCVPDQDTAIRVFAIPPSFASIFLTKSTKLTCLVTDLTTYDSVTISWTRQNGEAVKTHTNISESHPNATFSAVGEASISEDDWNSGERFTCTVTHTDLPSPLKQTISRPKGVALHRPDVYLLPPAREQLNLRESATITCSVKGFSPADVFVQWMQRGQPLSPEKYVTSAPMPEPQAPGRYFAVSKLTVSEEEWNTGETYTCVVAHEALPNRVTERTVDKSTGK
Protocol: (§1) IgM was made by co-transfection of several different expression vectors at equal molar ratios into mammalian cells, such as 293F cells (Invitrogen). 10 μg of mixed DNA for expression vectors were mixed with 20 μl of 293Fectin (Invitrogen) for 30 minutes at room temperature in 2 ml of Opti-MEM (Invitrogen) and then added to 10⁷ 293F cells. Transfections with 293F cells were incubated for 72 hours post-transfection before harvesting the supernatant.
(§2) b. Protein purification by immunoprecipitation. [0243] i. Capture Select IgM (Catalog 2890.05, BAC, Thermo Fisher) [0244] Transfected supernatant were harvested by centrifugation at 2,000 G for 10 minutes. IgM proteins were purified by immunoprecipitation with affinity Capture Select IgM affinity matrix. 100 μl of Capture Select IgM slurry were added to 15 ml of harvested supernatant. […] The affinity matrixes were further washed with 60 μl of PBS and the supernatant were pooled for analysis by gel electrophoresis.
(§3) c. Gel electrophoresis [0246] i. Non-reducing SDS Page [0247] Non-reducing SDS PAGE was used to separate various mutant IgM proteins of different molecular weights. Novex 4-12% Bis-Tris Gel (Life Technologies) was used with Novex MES SDS Running Buffer (Life Technologies). [0248] II.

[3] = molecular target: T2, Fc2a (human µ chain CH2 to CH4 region with C291S, T350Y, T354E and I397E mutations and tail piece deletion) (human, UniProt P01871 112-433); assay: co-transfection in 293F cells, Capture Select IgM immunoprecipitation, non-reducing SDS-PAGE (FIG. 6, lane 3)
T2 chain: T1 chain with T243Y, S245L, K247E, V288H, K290E
Protocol: as §1, §2, §3

B1: Fc chain (human IgM µ chain CM2 to CM4, cMyc tag, tail piece replaced by 6His tag, C291S) (other)
chain: GSGSKVSVFVPPRDGFFGNPRKSKLICQATGFSPRQIQVSWLREGKQVGSGVTTDQVQAEAKESGPTTYKVTSTLTIKESDWLSQSMFTCRVDHRGLTFQQNASSMCVPDQDTAIRVFAIPPSFASIFLTKSTKLTCLVTDLTTYDSVTISWTRQNGEAVKTHTNISESHPNATFSAVGEASISEDDWNSGERFTCTVTHTDLPSPLKQTISRPKGVALHRPDVYLLPPAREQLNLRESATITCLVTGFSPADVFVQWMQRGQPLSPEKYVTSAPMPEPQAPGRYFAHSILTVSEEEWNTGETYTCVVAHEALPNRVTERTVDKSTGKGGGSEQKLISEEDLNSAVDHHHHHH
notes: Native CM4 interface; also called wild-type Fc
[1]
  binding result: binds

B2: Rtx2a (µ chain of chimeric Rituxan (anti-CD20) Vh fused with CM1 to CM4 of human µ chain with C291S, T350Y, T354E and I397E mutations and tail piece deletion) … (antibody)
heavy: QVQLQQPGAELVKPGASVKMSCKASGYTFTSYNMHWVKQTPGRGLEWIGAIYPGNGDTSYNQKFKGKATLTADKSSSTAYMQLSSLTSEDSAVYYCARSTYYGGDWYFNVWGAGTTVTVSSGSASAPTLFPLVSCENSPSDTSSVAVGCLAQDFLPDSITFSWKYKNNSDISSTRGFPSVLRGGKYAATSQVLLPSKDVMQGTDEHVVCKVQHPNGNKEKNVPLPVIAELPPKVSVFVPPRDGFFGNPRKSKLICQATGFSPRQIQVSWLREGKQVGSGVTTDQVQAEAKESGPTTYKVTSTLTIKESDWLSQSMFTCRVDHRGLTFQQNASSMCVPDQDTAIRVFAIPPSFASIFLTKSTKLTCLVTDLTTYDSVTISWTRQNGEAVKTHTNISESHPNATFSAVGEASISEDDWNSGERFTCTVTHTDLPSPLKQTISRPKGVALHRPDVYLLPPAREQLNLRESATIYCLVEGFSPADVFVQWMQRGQPLSPEKYVTSAPMPEPQAPGRYFAHSELTVSEEEWNTGETYTCVVAHEALPNRVTERTVDKSTGK
light: QIVLSQSPAILSASPGEKVTMTCRASSSVSYIHWFQQKPGSSPKPWIYATSNLASGVPVRFSGSGSGTSYSLTISRVEAEDAATYYCQQWTSNPPTFGGGTKLEIKRTVAAPSVFIFPPSDEQLKSGTASVVCLLNNFYPREAKVQWKVDNALQSGNSQESVTEQDSKDSTYSLSSTLTLSKADYEKHKVYACEVTHQGLSSPVTKSFNRGEC
notes: One HL half pairs with the partner µ chain
[2]
  binding result: binds

B3: Rtx2b (µ chain of chimeric Rituxan (anti-CD20) Vh fused with CM1 to CM4 of human mu chain with C291S, L352S, T354K, H395V and I397K mutations and tail piece … (antibody)
heavy: B2 heavy with Y471T, L473S, E475K, H516V, E518K
light: B2 light
notes: as for B2
[3]
  binding result: binds
